# Results from the supplement of paper PMC7877785.
# ± gives the uncertainty stated by the source.
# Experiment: self-splicing fitness, log relative to wild type (ln ratio); higher = more splicing; Tetrahymena group I intron in knt gene, E. coli kanamycin selection, DiMSum; sequences stand for … in CUCUCU…GGAGGGAAAAGUUAUCAGGCAUGCACCUGGUAGCUAGUCUUUAAACCAAUAGAUUGCAUCGGUUUAAAAGGCAAGACCGUCAAAUUGCGGGAAAGGGGUCAACAGCCGUUCAGUACCAAGUCUCAGGGGAAACUUUGAGAUGGCCUUGCAAAGGGUAUGGUAAUAAGCUGACGGACAUGGUCCUAACCACGCAGCCAAGUCCUAAGUCAACAGAUCUUCUGUUGAUAUGGAUGCAGUUCACAGACUAAAUGUCGGUCGGGGAAGAUGUAUUCUUCUCAUAAGAUAUAGUCGGACCUCUCCUUAAUGGGAGCUAGCGGAUGAAGUGAUGCAACACUGGAGCCGCUGGGAACUAAUUUGUAUGCGAAAGUAUAUUGAUUAGUUUUGGAGUACUCGUGGUCG
# In short: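 Fitness was computed with DiMSum as the error-weighted combination of replicate fold changes, kanamycin versus none, each normalised to wild type. The library randomised all eight intron nucleotides of the P1ex region, with the intron placed in the knt kanamycin-resistance gene on pET-22b(+) in E. coli BL21(DE3). Six replicate transformations were grown overnight at 37°C or 30°C on LB agar with or without 25 μg/mL kanamycin, plus 100 μg/mL carbenicillin, 50 μM IPTG and 0.2% rhamnose. Pooled colonies were amplicon-sequenced on an Illumina HiSeq 2500.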
Sequence,self-splicing fitness (ln) (30 °C),self-splicing fitness (ln) (37 °C)
GGCCAGCAAUAUUACGGUUU,-0.995 ± 0.067,-0.401 ± 0.074
GGCCAGCAAUAUUACGUCCU,-1.47 ± 0.21,-0.4 ± 0.17
GGCCAGCAAUAUUACGUGCG,-1.17 ± 0.06,-0.564 ± 0.079
GGCCAGCAAUAUUACGUUCG,-2.66 ± 0.12,-1.75 ± 0.11
GGCCAGCAAUAUUACGUUGC,-1.58 ± 0.071,-0.74 ± 0.081
GGCCAGCAAUAUUACGUUUC,-1.4 ± 0.095,-0.362 ± 0.089
GGCGAGCAAUAUUACGAGAA,,-2.57 ± 0.41
GGCGAGCAAUAUUACGAUAG,-1.89 ± 0.18,-2.67 ± 0.38
GGCGAGCAAUAUUACGCCCA,-2.15 ± 0.42,-0.478 ± 0.33
GGCGAGCAAUAUUACGCGAA,-2.45 ± 0.2,-1.33 ± 0.16
GGCGAGCAAUAUUACGCUUU,-2.76 ± 0.23,-1.22 ± 0.19
GGCGAGCAAUAUUACGGAAA,-1.06 ± 0.48,
GGCGAGCAAUAUUACGGAAG,-4.21 ± 0.3,-1.04 ± 0.2
GGCGAGCAAUAUUACGGAUC,-0.443 ± 0.053,0.039 ± 0.075
GGCGAGCAAUAUUACGGCUG,-0.315 ± 0.15,-0.389 ± 0.28
GGCGAGCAAUAUUACGGUUC,-1.46 ± 0.13,-0.156 ± 0.13
GGCGAGCAAUAUUACGGUUU,-1.06 ± 0.076,0.0414 ± 0.11
GGCGAGCAAUAUUACGUACA,-1 ± 0.18,0.151 ± 0.15
GGCGAGCAAUAUUACGUGCA,-0.905 ± 0.085,-0.435 ± 0.098
GGCGAGCAAUAUUACGUUAA,-2.51 ± 0.19,-1.4 ± 0.2
GGCGAGCAAUAUUACGUUAC,-3.24 ± 0.33,-2.03 ± 0.32
GGCUAGCAAUAUUACGAAAU,-1.67 ± 0.22,0.0518 ± 0.2
GGCUAGCAAUAUUACGACGU,-0.0784 ± 0.15,1.15 ± 0.28

Sequence,self-splicing fitness (ln) (30 °C),self-splicing fitness (ln) (37 °C)
GGCUAGCAAUAUUACGAGAC,-3.62 ± 0.44,
GGCUAGCAAUAUUACGAGCA,-0.589 ± 0.081,-0.213 ± 0.12
GGCUAGCAAUAUUACGAUUU,-0.855 ± 0.093,0.68 ± 0.12
GGCUAGCAAUAUUACGCAGU,-1.78 ± 0.34,
GGCUAGCAAUAUUACGCGAA,-1.83 ± 0.085,-1.27 ± 0.08
GGCUAGCAAUAUUACGCUCC,-2.32 ± 0.26,
GGCUAGCAAUAUUACGGAAC,-1.09 ± 0.1,-0.447 ± 0.13
GGCUAGCAAUAUUACGGAUU,-0.369 ± 0.13,0.405 ± 0.16
GGCUAGCAAUAUUACGGCCG,-1.45 ± 0.23,-0.656 ± 0.22
GGCUAGCAAUAUUACGGCUA,0.235 ± 0.32,-0.282 ± 0.42
GGCUAGCAAUAUUACGGGCU,,-3.05 ± 0.3
GGCUAGCAAUAUUACGGGGU,-2.25 ± 0.1,-1.29 ± 0.11
GGCUAGCAAUAUUACGUGGG,-2.64 ± 0.17,-1.91 ± 0.2
GGCUAGCAAUAUUACGUGGU,-3.18 ± 0.23,-2.13 ± 0.24
GGCUAGCAAUAUUACGUUGA,-1.26 ± 0.13,0.455 ± 0.14
GGCUAGCAAUAUUACGUUUG,-2.86 ± 0.11,-1.45 ± 0.12
GGGAAGCAAUAUUACGAAGA,,-0.943 ± 0.23
GGGAAGCAAUAUUACGAGAA,-2.16 ± 0.48,-1.78 ± 0.36
GGGAAGCAAUAUUACGAGUG,-3.06 ± 0.12,-1.81 ± 0.11
GGGAAGCAAUAUUACGCAAA,-1.9 ± 0.24,-2 ± 0.17
GGGAAGCAAUAUUACGCCAG,-3.13 ± 0.36,
GGGAAGCAAUAUUACGCCGG,-3.75 ± 0.29,
